Measured values as given in patent US20230133118A1, “COMPOSITIONS AND METHODS FOR TREATING CANCER” (Adagene AG, priority 2020, published 2023).

Biological target: human CD137 (human) (UniProt Q07011)
Test: surface plasmon resonance (SPR); format not described

Chain of Urelumab (antibody) (VH): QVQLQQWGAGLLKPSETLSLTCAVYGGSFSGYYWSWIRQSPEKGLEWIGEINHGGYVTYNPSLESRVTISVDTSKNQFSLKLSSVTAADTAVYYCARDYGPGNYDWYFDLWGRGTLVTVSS
Chain of Urelumab (antibody) (VL): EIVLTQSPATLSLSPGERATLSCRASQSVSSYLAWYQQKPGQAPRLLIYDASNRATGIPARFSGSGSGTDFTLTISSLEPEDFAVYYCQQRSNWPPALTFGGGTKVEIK
Chain of human CD137 (human) (Q07011 24-186 limits assumed): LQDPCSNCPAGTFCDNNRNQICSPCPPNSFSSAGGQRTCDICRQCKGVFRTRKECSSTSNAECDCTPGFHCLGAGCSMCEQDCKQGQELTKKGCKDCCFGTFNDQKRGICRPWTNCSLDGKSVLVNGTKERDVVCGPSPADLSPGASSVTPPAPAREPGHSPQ

## Urelumab (antibody)
  Kd: 9.6 nM
